Changes are numbered by the printed parent chain.
B1: FP140 (Fc fusion)
chain: DKTHTCPPCPAPEAAGAPSVFLFPPKPKDTLMISRTPEVTCVVVDVSHEDPEVKFNWYVDGVEVHNAKTKPREEQQNSTYRVVSVLTVLHQDWLNGKEYKCKVSNKALKAPIEKTISKAKGQPREPQVYTLPPSRDELTKNQVSLTCLVKGFYPSDIAVEWESNGQPENNYKTTPPVLDSDGSFFLYSKLTVDKSRWQQGNVFSCSVMHEALHNHYTQKSLSLSPGGSSAPGSSAPGSSAPTALGRRKAEDRIKETLWADGVKIDEKDFEHIKSSHEDYFAVEYGKGSGYYDVNKKMDSEDTALCVGAVVTNMFHWWVDQNRENIEKFKKQDPENNGVMKFEGVKEATVDELNEFYRDNRDNYADQSRFFDLIKKHFGNKALNPEELFELYFNGFYYGSSHRYIEDNEPAQNNLFSKVLENNKLLNPERSYGIDGFSNNVINALKSHKVLGLVYTTPLRYRHIISMWGADIDQDGKVKAIYVTDSDDREITFNDNSKRRIGMIRYDVLVDDNGNIRFTGKGATHKEEGAIYAGLYSLSRGDEVWEDYFKKYPEVQENL
B2: FP168 (Fc fusion)
chain 1: B1 chain with T146W, M208L, N214S
chain 2: DKTHTCPPCPAPEAAGAPSVFLFPPKPKDTLMISRTPEVTCVVVDVSHEDPEVKFNWYVDGVEVHNAKTKPREEQQNSTYRVVSVLTVLHQDWLNGKEYKCKVSNKALKAPIEKTISKAKGQPREPQVYTLPPSRDELTKNQVSLSCAVKGFYPSDIAVEWESNGQPENNYKTTPPVLDSDGSFFLVSKLTVDKSRWQQGNVFSCSVLHEALHSHYTQKSLSLSPG
B3: FP174 (Fc fusion)
chain 1: B1 chain with T146W, T302S
chain 2: B2 chain 2 with L208M, S214N
B4: FP175 (Fc fusion)
chain 1: B1 chain with T146W, M208L, N214S, T302S
chain 2: B2 chain 2
B5: FP167 (Fc fusion)
chain 1: B1 chain with T146W
chain 2: B2 chain 2 with L208M, S214N
B6: FP141 (Fc fusion)
chain 1: DKTHTCPPCPAPEAAGAPSVFLFPPKPKDTLMISRTPEVTCVVVDVSHEDPEVKFNWYVDGVEVHNAKTKPREEQQNSTYRVVSVLTVLHQDWLNGKEYKCKVSNKALKAPIEKTISKAKGQPREPQVYTLPPSRDELTKNQVSLWCLVKGFYPSDIAVEWESNGQPENNYKTTPPVLDSDGSFFLYSKLTVDKSRWQQGNVFSCSVMHEALHNHYTQKSLSLSPGGGGSGGGGSGGGGSTALGRRKAEDRIKETLWADGVKIDEKDFEHIKSSHEDYFAVEYGKGSGYYDVNKKMDSEDTALCVGAVVTNMFHWWVDQNRENIEKFKKQDPENNGVMKFEGVKEATVDELNEFYRDNRDNYADQSRFFDLIKKHFGNKALNPEELFELYFNGFYYGSSHRYIEDNEPAQNNLFSKVLENNKLLNPERSYGIDGFSNNVINALKSHKVLGLVYTTPLRYRHIISMWGADIDQDGKVKAIYVTDSDDREITFNDNSKRRIGMIRYDVLVDDNGNIRFTGKGATHKEEGAIYAGLYSLSRGDEVWEDYFKKYPEVQENL
chain 2: B2 chain 2 with L208M, S214N
B7: FP165 (Fc fusion)
chain 1: B6 chain 1 with M208L, N214S
chain 2: B2 chain 2
B8: FP142 (Fc fusion)
chain 1: B6 chain 1 with S134C
chain 2: B2 chain 2 with Y129C, L208M, S214N
B9: FP159 (Fc fusion)
chain: B6 chain 1 with W146T, D510K, E525N
B10: FP143 (Fc fusion)
chain: B6 chain 1 with W146T, M208L, N214S
B11: FP149 (Fc fusion)
chain: B6 chain 1 with W146T, D510K
B12: FP160 (Fc fusion)
chain: B6 chain 1 with W146T, I432R, D510K, E525N, E541K, E544K
B13: FP163 (Fc fusion)
chain: B6 chain 1 with W146T, N511E
B14: FP145 (Fc fusion)
chain: B6 chain 1 with W146T, T301S
B15: FP158 (Fc fusion)
chain: B6 chain 1 with W146T, E541K, E544K
B16: FP150 (Fc fusion)
chain: B6 chain 1 with W146T, N411G
B17: FP144 (Fc fusion)
chain: B6 chain 1 with L89D, Q91H, W146T, N214S
B18: FP147 (Fc fusion)
chain: B6 chain 1 with W146T, H400Q, R458E
B19: FP171 (Fc fusion)
chain 1: B6 chain 1 with M208L, N214S, T301S
chain 2: B2 chain 2
B20: FP170 (Fc fusion)
chain 1: B6 chain 1 with T301S
chain 2: B2 chain 2 with L208M, S214N
B21: FP146 (Fc fusion)
chain: B6 chain 1 with W146T, K374S, K496A
B22: FP164 (Fc fusion)
chain: B6 chain 1 with W146T, H375D

Target: Human IgE antibody (human)
Test: cell-based or functional assay

Binder	EC50 CE-SDS IgE	EC50 MSD IgE
B1	0.43 nM	1350 pM
B2	17.6 nM	637 pM
B3	12.2 nM	511 pM
B4	179 nM	1880 pM
B5		721 pM
B6	0.75 nM	874 pM
B7	29.3 nM	822 pM
B8	3.8 nM	
B9	2.45 nM	
B10	0.035 nM	1630 pM
B11	0.19 nM	708 pM
B12	4.04 nM	
B13	30.5 nM	
B14	1.45 nM	654 pM
B15	0.2 nM	
B16	1.15 nM	2200 pM
B17	0.66 nM	
B18	3.1 nM	
B19	17.8 nM	1350 pM
B20	14.6 nM	1020 pM
B21	1.58 nM	
B22	17.4 nM	

Source: US20250340857A1 (SEISMIC THERAPEUTIC, published 2025)
